B1: TPR t1 (parent)
chain: GACCAAUCUGCCCUCAGAGCUCGAGAACAUCUUCGGAUGCAGAGGAGGCAGGCUUCGGUGGCGCGAUAGCGCCAACGUCCUCAACCUCCAAUGCAUCCCACCACAUGAUGAUGCCUGAAGAGCCUUGGUUUUUUG

Variants of: B1
Experiment: polymerase ribozyme fitness, log enrichment relative to wild type (log ratio); higher = more active; in vitro selection for triplet polymerase activity
Method in brief: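 The heterodimeric triplet polymerase ribozyme's subunits were each mutagenized into PCR-built libraries and transcribed. Every library was selected once, in triplicate, by annealing with a biotinylated primer, the partner subunit and triplets, incubating frozen at −7 °C, gel-excising extended constructs, capturing on streptavidin beads and running RT-PCR. Input and output libraries were Illumina-sequenced, with genotypes kept only at ≥10 input reads and ≥1 read per output. Fitness, from inverse-variance-weighted replicate averages, is the base-2 logarithm of genotype enrichment over wild-type enrichment.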

Variant	polymerase ribozyme fitness (log ratio)
GACCAAUCUGCCCUCAGAGCUCGAGAACAUCUUCGGAUGCAGCGGAGGCAGGCUUCGGUGGCGCGAUAGCGCCAACGUCCUCAACCUCCAAUGCAUCCCACCACAUGAUGAUGCCUGAAGAGCCGUGGUUUUUUG	-2.24
GACCAAUCUGCCCUCAGAGCUCGAGAACAUCUUCGGAUGCAGCGGAGGCAGGCUUCGGUGGCGCGAUAGCGCCAACGUCCUCAACCUCCAAUGCAUCCCACCACAUGAUGAUGCCUGAAGAGCCUUGGGUUUUUG	-3.27
GACCAAUCUGCCCUCAGAGCUCGAGAACAUCUUCGGAUGCAGGGGAGGCCGGCUUCGGUGGCGCGAUAGCGCCAACGUCCUCAAUCUCAAAUGCAUCCCACCACAUGAUGAUGCCUGAAGAGCCUUGGUUUUUUG	-3.67
GACCAAUCUGCCCUCAGAGCUCGAGAACAUCUUCGGAUGCAGGGGAGGCAGGCUUCGGUGGCGCGAUAGCGCCAACGUCCUCAUCCUCCAAUGCAUCCCACCACAUGAUGAUGCCUGAAGAGCCUUGGUUUUUUG	-1.9
GACCAAUCUGCCCUCAGAGCUCGAGAACAUCUUCGGAUGCAGGGGAGGCAGGCUUCGGUGGCGCGAUAGCGCCAACGUCCUCAACCUCCAAUGCAUCCCUCCACAUGAUGAUGCCUGAAGAGCCUUGGUUUUUUG	-2.72
GACCAAUCUGCCCUCAGAGCUCGAGAACAUCUUCGGAUGCAGGGGAGGCAGGCUUGGGUGGCGCGAUAGCGCCAACGUCCUAACCCUCCAAUGCAUCCCACCACAUGAUGAUGUCUGAAGAGCCUUGGUUUUUUG	-3.15
GACCAAUCUGCCCUCAGAGCUCGAGAACAUCUUCGGAUGCAGGGGAGGCAGGCUUUGGUGGCGCGAUAGCGCCAACGUCCUCAACCUCCAAUGCAUCCCACCACAUGAUGAUGCCUGAAGAGCCUUGGUUUUUUG	-1.77
GACCAAUCUGCCCUCAGAGCUCGAGAACAUCUUCGGAUGCAGGGGAGGCAGGCUUUGGUGGCGCGAUAGCGCCAACGUCCUCAACCUCCAAUGCAUCCCACCACAUGAAGAUGCCUUAAGAGCCUUGGUUUUUUG	-5.89
GACCAAUCUGCCCUCAGAGCUCGAGAACAUCUUCGGAUGCAGGGGAGGCAGGCUUCGGUGGUGCGAUAGCGACAACGUCCUCAACCUCCAAUGCAUCCCACCACAUGAUGAUCCCUGAAGAGCCUUGGUUUUUUG	-2.93
GACCAAUCUGCCCUCAGAGCUCGAGAACAUCUUCGGAUGCAGGGGAGGCAGGCUUCGGUGGUGCGAUAGCGCUAACGUCCUCACCCUCCAAAGCAUCCCACCACAUGAUGAUGCCUGUAGAGCCUUGGUUUCUUC	-2.69
GACCAAUCUGCCCUCAGAGCUCGAGAACAUCUUCGGAUGCAGGGGAGGCAGGCUUCGGUGGCGCGAUAGUGCCAACGUCCUCAACCUCCAAUGCAUCCCACCACAUGAUGAUGCCUGAAUAGCCUUGUUUUUUUG	-3.88
GACCAAUCUGCCCUCAGAGCUCGAGAACAUCUUCGGAUGCAGGGGAGGCAGGCUUCGGUGGCGCGAUAGCGACAACGUCCUCAACCUCCAAUGCAUCCCACCACAUGAUGAUGCCUGAAGAGCCUUGGUUUUUUG	-1.13
GACCAAUCUGCCCUCAGAGCUCGAGAACAUCUUCGGAUGCAGGGGAGGCAGGCUUCGGUGGCGCGAUAGCGUCAACGUCCUCAACCUCCAAUGCAUCCCACCACAUGAUGACGCCUGAAGAUCCUUGGUUUUUUG	-0.894
GACCAAUCUGCCCUCAGAGCUCGAGAACAUCUUCGGAUGCAGGGGAGGCAGGCUUCGGUGGCGCGAUAGCGCUAACGUACUCAACCUCCAAUGCAGCCCACCACAUGAUGAUGCCUGUAGAGCCUUGGUUUUUUG	-4.39
GACCAAUCUGCCCUCAGAGCUCGAGAACAUCUUCGGAUGCAGGGGAGGCAGGCUUCGGUGGCGCGAUAGCGCCAACGUCAUCAACCUCCAAUGCAUCCCACCACAUGAUGAUGCGUGAAGAGCCUUGGUUUUUUG	-7.29
GACCAAUCUGCCCUCAGAGCUCGAGAACAUCUUCGGAUGCAGGGGAGGCAGGCUUCGGUGGCGCGAUAGCGCCAACGUCCUGAACCCCCAAUUCAUCCCACCACAUGAUGAUGCCUGAAGAGCCUUGGUUUUUUG	-6.73
GACCAAUCUGCCCUCAGAGCUCGAGAACAUCUUCGGAUGCAGGGGAGGCAGGCUUCGGUGGCGCGAUAGCGCCAACGUCCUCAAGCUCCAAUGCAUCCCACCACAUGAUGAUGCCUGAAGAGCCUUGGUUUUUUG	-2.89
GACCAAUCUGCCCUCAGAGCUCGAGAACAUCUUCGGAUGCAGGGGAGGCAGGCUUCGGUGGCGCGAUAGCGCCAACGUCCUCAACCUGCAAUGCAUCCCACCACAUGAUGAUUCCUGAAGGGCCUUGGUUUUUUG	-3.25
GACCAAUCUGCCCUCAGAGCUCGAGAACAUCUUCGGAUGCAGGGGAGGCAGGCUUCGGUGGCGCGAUAGCGCCAACGUCCUCAACCUCCAAUGCAUCCCAUCACAUGAUGAUGCCUGAAGAGCCUUGGUUUUUUG	-1.47
GACCAAUCUGCCCUCAGAGCUCGAGAACAUCUUCGGAUGCAGGGGAGGCAGGCUUCGGUGGCGCGAUAGCGCCAACGUCCUCAACCUCCAAUGCAUCCCACCACAUGAUGAUGGCUGAAGAGCCUUGGUUUUUUU	-3.37
GACCAAUCUGCCCUCAGAGCUCGAGAACAUCUUCGGAUGCAGGGGAGGCAGGCUUCGGUGGCGCGAUAGCGCCAACGUCCUCAACCUCCAAUGCAUCCCACCACAUGAUGAUGCAUGAAGAGCCUUGGUUUUUUC	-3.27
